B1: Protein PML (Homo sapiens), P29590-1 (parent)
chain: MEPAPARSPRPQQDPARPQEPTMPPPETPSEGRQPSPSPSPTERAPASEEEFQFLRCQQCQAEAKCPKLLPCLHTLCSGCLEASGMQCPICQAPWPLGADTPALDNVFFESLQRRLSVYRQIVDAQAVCTRCKESADFWCFECEQLLCAKCFEAHQWFLKHEARPLAELRNQSVREFLDGTRKTNNIFCSNPNHRTPTLTSIYCRGCSKPLCCSCALLDSSHSELKCDISAEIQQRQEELDAMTQALQEQDSAFGAVHAQMHAAVGQLGRARAETEELIRERVRQVVAHVRAQERELLEAVDARYQRDYEEMASRLGRLDAVLQRIRTGSALVQRMKCYASDQEVLDMHGFLRQALCRLRQEEPQSLQAAVRTDGFDEFKVRLQDLSSCITQGKDAAVSKKASPEAASTPRDPIDVDLPEEAERVKAQVQALGLAEAQPMAVVQSVPGAHPVPVYAFSIKGPSYGEDVSNTTTAQKRKCSQTQCPRKVIKMESEEGKEARLARSSPEQPRPSTSKAVSPPHLDGPPSPRSPVIGSEVFLPNSNHVASGAGEAEERVVVISSSEDSDAENSSSRELDDSSSESSDLQLEGPSTLRVLDENLADPQAEDRPLVFFDLKIDNETQKISQLAAVNRESKFRVVIQPEAFFSIYSKAVSLEVGLQHFLSFLSSMRRPILACYKLWGPGLPNFFRALEDINRLWEFQEAISGFLAALPLIRERVPGASSFKLKNLAQTYLARNMSERSAMAAVLAMRDLCRLLEVSPGPQLAQHVYPFSSLQCFASLQPLVQAAVLPRAEARLLALHNVSFMELLSAHRRDRQGGLKKYSRYLSLQTTTLPPAQPAFNLQALGTYFEGLLEGPALARAEGVSTPLAGRGLAERASQQS
partner: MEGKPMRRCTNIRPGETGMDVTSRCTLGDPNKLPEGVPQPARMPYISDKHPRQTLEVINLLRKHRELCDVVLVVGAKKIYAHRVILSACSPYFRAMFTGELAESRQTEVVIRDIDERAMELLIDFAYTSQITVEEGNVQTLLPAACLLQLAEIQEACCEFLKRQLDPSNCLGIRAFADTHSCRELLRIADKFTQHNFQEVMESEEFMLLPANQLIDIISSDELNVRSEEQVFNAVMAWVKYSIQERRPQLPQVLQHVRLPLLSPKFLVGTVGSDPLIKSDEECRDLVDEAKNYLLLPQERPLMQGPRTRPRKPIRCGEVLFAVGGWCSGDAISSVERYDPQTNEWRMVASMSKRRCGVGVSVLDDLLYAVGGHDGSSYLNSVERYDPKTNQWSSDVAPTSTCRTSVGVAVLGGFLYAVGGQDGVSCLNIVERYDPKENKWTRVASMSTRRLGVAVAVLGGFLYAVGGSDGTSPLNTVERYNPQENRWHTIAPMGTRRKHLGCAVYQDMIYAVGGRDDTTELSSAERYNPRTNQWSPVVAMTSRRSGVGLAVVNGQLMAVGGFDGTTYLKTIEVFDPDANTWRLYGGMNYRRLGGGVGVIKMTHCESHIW

Variants of: B1
Conditions: with klh20_human KLHL20, Q9Y2M5

Row | effect of a mutation on the interaction | Variant
1 | disrupting interaction | S518A

Variants of: B1
Conditions: with klh20_human KLHL20, Q9Y2M5
Remark: another data set of the same source

Row | effect of a mutation on the interaction | Variant
2 | disrupting interaction | S518A

From IntAct's records for PubMed 21840486
